Source: the DeepSol protein solubility set

Experiment: soluble on expression in E. coli; label from the status in PepcDB or PDB records

Sequence	soluble on expression in E. coli
MGTPVVWEGNIGNPPEHKSFPNGNNEPRQLLRLNVMFDNSIPDGSGGYKDRGGFWANVEWWHPDAERFAQLFSKGMRVVVTGRAIMDTWKDKETGDDVWALKVEANRVAILPHRVNQVTMTQSNNTGQRQNAQQNNRPERQQNSAQQPGQHTDDLSHYGNGFDDDIPVLEHHHHHH	soluble
MGTRDDEYDYLFKVVLIGDSGVGKSNLLSRFTRNEFNLESKSTIGVEFATRSIQVDGKTIKAQIWDTAGQERYRAITSAYYRGAVGALLVYDIAKHLTYENVERWLKELRDHADSNIVIMLVGNKSDLRHLRAVPTDEARAFAEKNGLSFIETSALDSTNVEAAFQTILTEIYRIVSQKQMSDRRENDMSPSNNVVPIHVPPTTENKPKVQCCQNI	soluble
MGTTVEGGRSGPRYVQVADEIVQQIRAGVLKPGDMVPSESEMVDRYGVSGGTIRKAMVEVRASGLVETRHGKGSIVKDRPPVRHRSSDRFRRSLRQGGKAAYLAESEQSGATAKVSVLYIGPMEAPADAAQRLGVPAGTQVLARRRLYFRNGTPVETASSYLPWDVVKDIPELFAENPGGGGIYARLEDHGHEFAEFVETLQARPASKAEATELALSPGAPVVHLIREARTAAGLVVEVCDTLMAADQFVFEYRIPAAD	not soluble
MGVDPSVKVEYKAPTVTYDQVGFMSKSTLMTHEQLISVRSAKVRQSVKITVKEQIPKSHDDKIKVSIVSPEIKSSSSSKNSSPPDARLNKDHNLEWCVILAPGQHRLLPVRYTIEHPASESLSYKFN	not soluble
MGVISAYAVVHERAAIIDPGTAKGAEIILDEIDRSWNVEYICPTHIHIDHGGGAARLAKALDAKIIVHPRGVKHVVNPEKLWEASKAVLGEVAEIYGKPESIDESKVIAVEDEQEFDLGGERLKVFHAPGHAPHMLVYYLTNSKVLFPADAVGMCFGGVVFPLTPPPFDADAALKTLKRLKGLKVDYVAFTHYGVVEGDWPIAKLEHHHHHH	not soluble
MGVKRKKMGKVAGFTEWTAEDLEAFRARWPIGTAQRLALELYQWTGARCVDVIRLGPQMVGRDGVLTYVQQKTGNPAHVPWTCPAFGLEEQRADLMRCLPVGSPVYMLTEYGKPRTQKGVSQWFSAAAREAGLESRTAHGLRKYRMNALAEHGASVLVMQSWVGHTTLLEVQEYTRRADRRRVISGGHPVKRDPAGAAAALEHHHHHH	soluble
MGVLQATVLWAGPIPRVGNPPNWTSPSSSGLLFFYFFFTSTSDFTMEAPPAPKKARRSEVSRMQDESVLCDDDEEDSPFTLYFVDLPNEPTVKEIRNLEELFKTAKAVGIMPEWIDSDALEDLQKSEDFFVLPCFRGKLFRKLQARKLKVYGPPIVLESIEDGKQLPQWNHPVYSSVFQDVKISFTGLNLTKKQELYEKIGWMCGVVGDALYHETTHLVTEKAEQTEKYKAAVNNSIKLMRIGWIDDLWETSQTTMGRFSALSRDSVNSYALRVFEGLEMAITSIDGADRTNFIQLIEDHGGKVPGTMSKTRFFFSVFHYKICSFLGALLSIQMMLPEKAFYRKYHPKYLTADHIRSSTPKRDANVTESVPDISSIAGHGGRLGTSSFNSSIPQMDQSYQHQSGSSFISFASTSKIPSSTFTNNDSTLGRSGSGVRDGISTPIARVQTTPLIRYPTTQTASVQNIADVISDPIDELRKNIDDGLGDLFENCMFYICGVDESRMEKWRRFLNETGATRVAKFTSATNVVVVSPNQQERITIRKHLHQEDIAIVTVGWVVECVKQRKMISVEGYQWTENTADESQSSQSQLQPVRPQPLPRTSSKSTIPYGKTSGPSSTSTQVGIFSYHTYCVHCSVDQEVSDDLKEKIPLNGGKLMDDPDYAEFVIFGHSGPMHELISFDAVVTDFYIYASIGNNRFLNRSCYPLFVPLPRPPILIFNQRGFQLKCKDPFLRDRVRDIIEDNGGRIVEQLEPKDFIIMIDAEDNPPRYHSRTLDFSWIIASVSRCRLQPIDNFLYKNNTRPLSGFQRDDDLWEKCSREKNNSTQEMEVEVEDRHRVQDLPVETGNGNIGDMTTPYVNPYFPDLRKPYTMNLQLDGVSEYINNMESPARETQETLTTSRVGSILRKAVVNTGRNEDFEDEPSTCHLIRPRVPENRKTVSSTPVLVRDVNRSMRYMPMDESFADQNQEHEDLNRRYAMNPRFLLSVSNMDPQRAADLQETIMKLGGTIEREFNKDVTHLIASNMQRAPKVLCSIAAGKWCLTPDYVTKSAEVGRWLDEKSFEWTREKLLACSKKNESLKERDSRKVSENLAAVCGLWRQRVAEMPVTFSVSMENRQNGAFSDWRCVIHLDDKRAGVFSSILEAGGAIVHSISEYVEVSTLKPNIVLASKEFPWNPQSAVLLKRDNIPIYVFDILYDFLIDRDNLNRTKFWHNVYMKA	not soluble
